Measurements: US20250339569A1 (3B PHARMACEUTICALS, published 2025)
Starred links: 1 amine or outer side, 2 acyl side, 3 side chain; linkers in the order of their positions; H or OH if unused. Positions of bridges follow the written chain, without caps; N, C: chain ends. Non-standard residues stand in square brackets, D forms with d. Primed or numbered codes have the meaning given here. *: point of attachment. Aph(SaPr) = 4-amino-L-phenylalanine, ring amine acylated by 3-sulfamoylpropanoic acid, NS(=O)(=O)CCC(=O)Nc1ccc(C[C@H](N[*:1])C(=O)[*:2])cc1; Aph(2Thz) = 4-aminophenylalanine with 1,3-thiazole-2-carbonyl on the ring amine, O=C(Nc1ccc(C[C@H](N[*:1])C(=O)[*:2])cc1)c1nccs1; 3MeBn = 3-methylbenzylidene (m-xylene unit) bridging two Cys S atoms via thioethers, from alpha,alpha'-dibromo-m-xylene; Aph(iNic) = 4-aminophenylalanine with isonicotinoyl on the ring amine, O=C(Nc1ccc(C[C@H](N[*:1])C(=O)[*:2])cc1)c1ccncc1; Aph(Bz) = 4-aminophenylalanine with benzoyl on the ring amine, O=C(Nc1ccc(C[C@H](N[*:1])C(=O)[*:2])cc1)c1ccccc1; Af3(DkpAc) = 3-amino-L-phenylalanine acylated on the ring amine with 2-(3,6-dioxopiperazin-2-yl)acetic acid; Phe(3-NHCO(CH2)3SO2NH2) = N[C@@H](Cc1cccc(NC(=O)CCCS(N)(=O)=O)c1)C(=O)O; APAc″ = 2-(4-(amino)piperidin-1-yl)acetic acid, NC1CCN(CC(=O)*)CC1; DOTA = O=C(O)CN1CCN(CC(=O)O)CCN(CC(=O)*)CCN(CC(=O)O)CC1; Pyridine(3,5-bisCH2) = c1ncc(C[*:2])cc1C[*:1]; Acetyl(2-(piperazin-1-yl)) = O=C(CN1CCNCC1)*; mXylylene = c1cc(C[*:1])cc(C[*:2])c1; N6iQui = not defined here; Thp = NC1(C(=O)O)CCOCC1; Dap = NC[C@H](N)C(=O)O

B1: 3BP-3583: DOTA-APAc-Val-Tyr-[Cys(3MeBn)-Glu-pro-Asp-Trp-Leu-Thr-Trp-Ser-Cys]-NH2 (peptide)
peptide: {DOTA-APAc″}-VYCE[dP]DWLTWSC-NH2
modifications: linker 3-12 via mXylylene
notes: Cyclic peptide with uncomplexed DOTA; also called DPI-3583
B2: 3BP-4174: DOTA-APAc-Val-{Asp-[Cys(3MeBn)-Glu-pro-Asp-Trp-Leu-Thr-Trp-Dap}-Cys]-NH2 (peptide)
peptide: {DOTA-APAc″}-VDCE[dP]DWLTW[Dap]C-NH2
modifications: lactam 2-11; linker 3-12 via mXylylene
notes: Bicyclic peptide with uncomplexed DOTA; also called DPI-4174
B3: 3BP-3962 (peptide)
peptide: Ac-VYCE[dP]KW[Thp]EWSC-NH2
modifications: linker 3-12 via mXylylene; lactam 6-9
SMILES: CC(=O)N[C@H](C(=O)N[C@@H](Cc1ccc(O)cc1)C(=O)N[C@H]1CSCc2cccc(c2)CSC[C@@H](C(N)=O)NC(=O)[C@H](CO)NC(=O)[C@H](Cc2c[nH]c3ccccc23)NC(=O)[C@@H]2CCC(=O)NCCCC[C@H](NC(=O)[C@H]3CCCN3C(=O)[C@H](CCC(=O)O)NC1=O)C(=O)N[C@@H](Cc1c[nH]c3ccccc13)C(=O)NC1(CCOCC1)C(=O)N2)C(C)C
B4: 3BP-4452: DOTA-PPAc-Gln-[Cys(3MeBn)-Glu-pro-Asp-Af3(Cpsu)-Leu-Thr-Trp-Ser-Cys]-NH2 (peptide)
peptide: {DOTA-Acetyl(2-(piperazin-1-yl))}-QCE[dP]D[Phe(3-NHCO(CH2)3SO2NH2)]LTWSC-NH2
modifications: linker 2-11 via 3MeBn
notes: Cyclic peptide with uncomplexed DOTA; also called DPI-4452
B5: 3BP-4501: DOTA-Gln-[Cys(3MeBn)-Glu-pro-Asp-Aph(SaPr)-Leu-Thr-Trp-Ser-Cys]-NH2 (peptide)
peptide: {DOTA}-QCE[dP]D[Aph(SaPr)]LTWSC-NH2
modifications: linker 2-11 via mXylylene
SMILES: CC(C)C[C@@H]1NC(=O)[C@H](Cc2ccc(NC(=O)CCS(N)(=O)=O)cc2)NC(=O)[C@H](CC(=O)O)NC(=O)[C@H]2CCCN2C(=O)[C@H](CCC(=O)O)NC(=O)[C@@H](NC(=O)[C@H](CCC(N)=O)NC(=O)CN2CCN(CC(=O)O)CCN(CC(=O)O)CCN(CC(=O)O)CC2)CSCc2cccc(c2)CSC[C@@H](C(N)=O)NC(=O)[C@H](CO)NC(=O)[C@H](Cc2c[nH]c3ccccc23)NC(=O)[C@H]([C@@H](C)O)NC1=O
notes: Cyclic peptide with uncomplexed DOTA; also called DPI-4501

Experiments:
[1] = target: T1, human carbonic anhydrase 4 (CAIV), biotinylated (Sino Biological Cat #10472-H08H) (human, UniProt P22748 19-283, biotinylated (sites not given)); assay: SPR (Biacore T200), biotinylated CAIV captured with Biotin CAPture Kit; limit of the category in which no binding is told
T1 construct: Bought protein, biotinylated and captured with the Biotin CAPture Kit; also called hCAIV-bio; carbonic anhydrase IV

[2] = target: T2, human carbonic anhydrase 12 (CAXII), biotinylated (Sino Biological Cat #10617-H08H) (human, UniProt O43570 25-301, biotinylated (sites not given)); assay: SPR (Biacore T200), biotinylated CAXII captured with Biotin CAPture Kit; limit of the category in which no binding is told
T2 construct: Bought protein, biotinylated and captured with the Biotin CAPture Kit; also called hCAXII-bio; carbonic anhydrase XII

[3] = target: T3, human carbonic anhydrase 14 (CAXIV), biotinylated (Sino Biological Cat #10458-H08H) (human, UniProt Q9ULX7 16-290, biotinylated (sites not given)); assay: SPR (Biacore T200), biotinylated CAXIV captured with Biotin CAPture Kit; limit of the category in which no binding is told
T3 construct: Bought protein, biotinylated and captured with the Biotin CAPture Kit; also called hCAXIV-bio; carbonic anhydrase XIV

[4] = target: T4, human carbonic anhydrase 9 (CAIX) (human, UniProt Q16790 38-459); assay: FACS competition on HT-29 cells, competitor tracer 3BP-4149; category C = pIC50 6.1-7.0
Procedure: (§1) CAIX-expressing human HT-29 colorectal cancer cells (DSMZ, RRID: CVCL_0320) were cultured in McCoys's 5A modified medium (Biochrom, #F1015) including 10% fetal calf serum (FCS), 2 mM L-glutamine, 100 U/ml penicillin and 100 μg/mL streptomycin. Cells were detached with Accutase (Biolegend, #423201) and washed in FACS buffer (PBS including 1% FCS). Cells were diluted in FACS buffer to a final concentration of 500.000 cells per ml. 200 μL of the cell suspension were transferred to a u-shaped non-binding 96-well plate (Greiner) and cells were washed in ice-cold FACS buffer.
(§2) When biotinylated compounds were used an additional incubation step with 1 μg/mL APC-Streptavidin (Miltenyi; #130-106-791) in 50 μL FACS buffer for 30 minutes on ice was performed.
(§3) Cells were washed twice with ice-cold FACS buffer and analyzed in an Attune NxT flow cytometer (Thermo Fisher). Median fluorescence intensities (MFI) of the APC/Cy5-channel were calculated by Attune NxT software.

[5] = target: T4, human carbonic anhydrase 9 (CAIX); assay: FACS competition on HT-29 cells, competitor tracer 3BP-2776; category C = pIC50 6.1-7.0
Procedure: as §1, §2, §3

T1 sequence (P22748 19-283 limits assumed): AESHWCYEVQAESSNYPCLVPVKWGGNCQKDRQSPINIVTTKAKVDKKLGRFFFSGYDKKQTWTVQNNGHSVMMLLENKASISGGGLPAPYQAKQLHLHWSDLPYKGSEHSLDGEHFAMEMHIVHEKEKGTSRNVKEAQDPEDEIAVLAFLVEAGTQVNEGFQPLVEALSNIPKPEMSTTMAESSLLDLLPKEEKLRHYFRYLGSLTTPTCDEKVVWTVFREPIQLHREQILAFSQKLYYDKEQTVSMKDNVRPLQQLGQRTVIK
T3 sequence (Q9ULX7 16-290 limits assumed): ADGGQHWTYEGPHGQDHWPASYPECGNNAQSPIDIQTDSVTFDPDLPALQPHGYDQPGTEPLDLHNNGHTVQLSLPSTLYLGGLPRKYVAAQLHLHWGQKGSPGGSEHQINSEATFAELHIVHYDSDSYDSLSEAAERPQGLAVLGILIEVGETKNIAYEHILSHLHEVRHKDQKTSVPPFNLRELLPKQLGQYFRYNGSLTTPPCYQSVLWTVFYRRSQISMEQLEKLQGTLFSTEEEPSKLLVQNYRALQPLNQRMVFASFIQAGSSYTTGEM
T2 sequence (O43570 25-301 limits assumed): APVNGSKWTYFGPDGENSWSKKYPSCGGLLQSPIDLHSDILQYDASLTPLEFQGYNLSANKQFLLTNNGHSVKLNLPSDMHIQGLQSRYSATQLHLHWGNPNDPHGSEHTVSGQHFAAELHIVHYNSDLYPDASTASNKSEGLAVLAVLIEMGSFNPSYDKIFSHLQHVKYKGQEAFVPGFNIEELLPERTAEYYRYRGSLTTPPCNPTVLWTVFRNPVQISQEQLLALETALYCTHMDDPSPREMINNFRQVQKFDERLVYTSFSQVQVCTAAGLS

| pKD [1] | pKD [2] | pKD [3] | pIC50 [5] | also measured | Binder |
| --- | --- | --- | --- | --- | --- |
| < 6 | < 6 | < 6 | – | – | B1 |
| – | – | – | – | pIC50 [4]: 6.1 to 7 pic50 | {DOTA-APAc″}-VYCE[dP]E(N6iQui)WLTWSC-NH2 (linker 3-12 via mXylylene; reading uncertain) [3BP-4328] |
| < 6 | < 6 | < 6 | – | – | B2 |
| – | – | – | 6.1 to 7 pic50 | – | B3 |
| < 6 | < 6 | < 6 | – | – | B4 |
| – | – | – | 6.1 to 7 pic50 | – | {DOTA-APAc″}-VYCE[dP]DWLTWSC-NH2 (linker 3-12 via Pyridine(3,5-bisCH2)) [3BP-4141] |
| – | – | – | 6.1 to 7 pic50 | – | {DOTA-APAc″}-VYCE[dP]D[Aph(Bz)]LTWSC-NH2 (linker 3-12 via mXylylene) [3BP-4171] |
| < 6 | < 6 | < 6 | – | – | B5 |
| – | – | – | 6.1 to 7 pic50 | – | {DOTA-APAc″}-VYCE[dP]D[Aph(2Thz)]LTWSC-NH2 (linker 3-12 via mXylylene) [3BP-4180] |
| – | – | – | 6.1 to 7 pic50 | – | {DOTA-APAc″}-VYCE[dP]D[Aph(iNic)]LTWSC-NH2 (linker 3-12 via mXylylene) [3BP-4183] |
| – | – | – | – | pIC50 [4]: 6.1 to 7 pic50 | {DOTA-APAc″}-VYCE[dP]D[Af3(DkpAc)]LTWSC-NH2 (linker 3-12 via mXylylene) [3BP-4288] |
